Results from US20240116985A1 (published 2024).
Starred links: 1 amine or outer side, 2 acyl side, 3 side chain; linkers in the order of their positions; H or OH if unused. Positions of bridges follow the written chain, without caps; N, C: chain ends. Non-standard residues stand in square brackets, D forms with d. Primed or numbered codes have the meaning given here. B5(15) = 2-amino-2-(pent-4-en-1-yl)hept-6-enoic acid (2,2-bis(4-pentenyl)glycine), stitching residue bearing two staples, C=CCCCC(CCCC=C)(N[*:1])C(=O)[*:2]; PyrS2″ = (S)-3-amino-1-((pent-4-en-1-yloxy)carbonyl)pyrrolidine-3-carboxylic acid (stapling residue), C=CCCCOC(=O)N1CC[C@@](N[*:1])(C(=O)[*:2])C1; B5(16) = 2-amino-2-(pent-4-en-1-yl)hept-6-enoic acid = 2,2-bis(4-pentenyl)glycine (stitching residue), C=CCCCC(CCCC=C)(N[*:1])C(=O)[*:2]; B5(4) = 2,2-bis(4-pentenyl)glycine = 2-amino-2-(pent-4-en-1-yl)hept-6-enoic acid (stitching residue), C=CCCCC(CCCC=C)(N[*:1])C(=O)[*:2]; B5(5) = 2,2-bis(4-pentenyl)glycine, 2-amino-2-(pent-4-en-1-yl)hept-6-enoic acid (stitching residue), C=CCCCC(CCCC=C)(N[*:1])C(=O)[*:2]; PyrS2 = (S)-3-amino-1-((pent-4-en-1-yloxy)carbonyl)pyrrolidine-3-carboxylic acid, C=CCCCOC(=O)N1CC[C@@](N[*:1])(C(=O)[*:2])C1; (EtSSEt)AspE = (S)-2-amino-4-(2-(ethyldisulfaneyl)ethoxy)-4-oxobutanoic acid, CCSSCCOC(=O)C[C@H](N[*:1])C(=O)[*:2]; B5(3) = 2,2-bis(4-pentenyl)glycine (stitching residue), C=CCCCC(CCCC=C)(N[*:1])C(=O)[*:2]; B5 = 2-amino-2-(pent-4-en-1-yl)hept-6-enoic acid, C=CCCCC(CCCC=C)(N[*:1])C(=O)[*:2]; S3 = (S)-2-amino-2-methylpent-4-enoic acid, C=CC[C@](C)(N[*:1])C(=O)[*:2]; Phe(2-Cl) = N[C@@H](Cc1ccccc1Cl)C(=O)O; Bta = N[C@@H](Cc1csc2ccccc12)C(=O)O; αAllylPro = C=CC[C@@]1(C(=O)O)CCCN1; tBuAla = CC(C)(C)C[C@H](N)C(=O)O; 3Thi = N[C@@H](Cc1ccsc1)C(=O)O; S8 = C=CCCCCCC[C@](C)(N)C(=O)O; hSer = N[C@@H](CCO)C(=O)O; Aib = CC(C)(N)C(=O)O

T1: full-length beta-Catenin (Uniprot ID P35222) (Homo sapiens (Human), UniProt P35222 1-781)
T1 construct: Any tags on the recombinant protein are not described for the FP assay; also called bCat; B-Catenin
T1 sequence: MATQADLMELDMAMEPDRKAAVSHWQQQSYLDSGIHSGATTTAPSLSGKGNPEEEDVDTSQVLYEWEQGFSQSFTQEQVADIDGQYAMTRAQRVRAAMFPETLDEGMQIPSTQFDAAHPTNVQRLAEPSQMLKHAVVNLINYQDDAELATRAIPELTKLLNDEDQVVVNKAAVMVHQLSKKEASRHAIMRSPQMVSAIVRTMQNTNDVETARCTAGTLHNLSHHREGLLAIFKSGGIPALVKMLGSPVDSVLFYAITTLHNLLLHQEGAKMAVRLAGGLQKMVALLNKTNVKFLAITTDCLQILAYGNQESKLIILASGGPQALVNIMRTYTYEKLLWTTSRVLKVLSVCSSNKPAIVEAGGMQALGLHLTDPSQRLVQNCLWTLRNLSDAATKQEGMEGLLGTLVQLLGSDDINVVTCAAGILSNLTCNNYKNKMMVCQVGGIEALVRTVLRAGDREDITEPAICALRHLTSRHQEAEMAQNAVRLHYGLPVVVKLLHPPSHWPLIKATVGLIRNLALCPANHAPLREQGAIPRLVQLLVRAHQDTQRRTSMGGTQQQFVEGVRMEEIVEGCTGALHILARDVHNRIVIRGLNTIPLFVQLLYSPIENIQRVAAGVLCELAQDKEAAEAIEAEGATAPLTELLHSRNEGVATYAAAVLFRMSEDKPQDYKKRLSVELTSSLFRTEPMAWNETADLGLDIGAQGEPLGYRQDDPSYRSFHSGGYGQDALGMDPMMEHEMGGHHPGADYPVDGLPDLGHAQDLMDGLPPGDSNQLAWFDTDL

T2: full-length beta-Catenin (Uniprot ID P35222) (Homo sapiens (Human), UniProt P35222 2-781)
T2 construct: Used at 10 nM in the FP probe solution as 'full-length'; Also used here for the endogenous beta-catenin of the DLD1 TCF/LEF reporter cells (functional rows); also called bCat; B-Catenin
T2 sequence: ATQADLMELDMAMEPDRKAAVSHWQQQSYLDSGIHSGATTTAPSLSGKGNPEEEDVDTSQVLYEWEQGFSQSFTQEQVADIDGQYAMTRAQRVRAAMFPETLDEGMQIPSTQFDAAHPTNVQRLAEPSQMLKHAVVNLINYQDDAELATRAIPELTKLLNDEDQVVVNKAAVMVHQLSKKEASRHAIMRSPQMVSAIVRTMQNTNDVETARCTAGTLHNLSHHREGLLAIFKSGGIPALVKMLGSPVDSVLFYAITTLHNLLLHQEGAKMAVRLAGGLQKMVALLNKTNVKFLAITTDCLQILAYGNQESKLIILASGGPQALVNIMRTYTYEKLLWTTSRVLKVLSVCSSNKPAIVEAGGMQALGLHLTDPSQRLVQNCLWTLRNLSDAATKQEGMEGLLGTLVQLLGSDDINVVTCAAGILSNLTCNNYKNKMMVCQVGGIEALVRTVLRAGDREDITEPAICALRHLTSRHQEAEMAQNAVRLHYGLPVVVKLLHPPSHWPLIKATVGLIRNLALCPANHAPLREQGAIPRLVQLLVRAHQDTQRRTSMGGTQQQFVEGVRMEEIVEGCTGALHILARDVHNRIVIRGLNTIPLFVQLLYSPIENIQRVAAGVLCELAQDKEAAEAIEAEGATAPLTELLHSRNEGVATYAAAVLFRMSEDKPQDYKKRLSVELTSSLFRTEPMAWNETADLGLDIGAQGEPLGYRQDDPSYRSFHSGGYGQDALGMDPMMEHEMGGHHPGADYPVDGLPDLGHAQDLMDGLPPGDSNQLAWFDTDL

T3: B-cat-Halo (beta-catenin HaloTag construct expressed in HEK293 cells) (UniProt P35222 1-781)
T3 sequence (looked up): T1 sequence

T4: B-cat-Halo (beta-catenin HaloTag Nano-BRET construct) (UniProt P35222 1-781)
T4 sequence (looked up): T1 sequence

T5: beta-catenin in DLD1 TCF/LEF luciferase reporter cells (UniProt P35222 1-781)
T5 sequence (looked up): T1 sequence

T6: B-cat-Halo (beta-catenin HaloTag NanoBRET construct expressed in HEK293 cells) (UniProt P35222 1-781, HaloTag NanoBRET 618 Ligand bound to the HaloTag)
T6 sequence (looked up): T1 sequence

B1: I-1527: Ac-PL3-Asp-Ser-B5-Asp-Glu-Ala-Ala-Phe-Gln-S8-Phe-BztA-Gln-NH2 (peptide)
peptide: Ac-[αAllylPro]DS[B5(5)]DEAAFQ[S8]F[Bta]Q-NH2
modifications: staple 1-4, 4-11
notes: Stapled peptide composition; It has the same description as I-1526 and is the staple isomer composition of the later eluting HPLC peak
B2: I-1530: Ac-PL3-Asp-Ser-B5-Asp-Glu-Ala-Ala-Phe-Hse-S8-Phe-BztA-Gln-NH2 (peptide)
peptide: Ac-[αAllylPro]DS[B5(15)]DEAAF[hSer][S8]F[Bta]Q-NH2
modifications: staple 1-4, 4-11; not fully specified; printed as Ac-PL3-Asp-Ser-B5-Asp-Glu-Ala-Ala-Phe-Hse-S8-Phe-BztA-Gln-NH2
notes: Stapled peptide composition; It has the same description as I-1529 and is the staple isomer composition of the later eluting HPLC peak
B3: I-1531: Ac-PL3-Asp-Asn-B5-Asp-Glu-Ala-Ala-Phe-Gln-S8-Phe-BztA-Gln-NH2 (peptide)
peptide: XDNXDEAAFQXFXQ
modifications: not fully specified; N-terminal Ac; C-terminal NH2; PL3 at 1, B5 at 4 and S8 at 11 stapled by olefin metathesis (PL3-B5 and B5-S8); BztA at 13
notes: Stapled peptide composition; It has the same description as I-1532 and is the staple isomer composition of the earlier eluting HPLC peak
B4: I-1043 (peptide)
peptide: Ac-[αAllylPro]DF[B5(16)]DDAAFT[PyrS2″][Phe(2-Cl)][Bta]Q-NH2
modifications: staple 1-4, 4-11
notes: Stapled (stitched) peptide composition
B5: I-1049 (peptide)
peptide: Ac-[αAllylPro]DF[B5(4)]DDAAFT[PyrS2″][Phe(2-Cl)][Bta]S-NH2
modifications: staple 1-4, 4-11
notes: as for B4
B6: I-801 (peptide)
peptide: Ac-[αAllylPro]D[tBuAla][B5]DDAAFL[PyrS2][3Thi][Bta]Q-NH2
modifications: staple 1-4, 4-11
B7: I-803 (peptide)
peptide: Ac-[αAllylPro]D[tBuAla][B5(3)]DDAAF[hSer][PyrS2″][3Thi][Bta]Q-NH2
modifications: staple 1-4, 4-11
B8: I-809 (peptide)
peptide: Ac-[αAllylPro]D[tBuAla][B5(3)]DDAAFT[PyrS2″][3Thi][Bta]Q-NH2
modifications: staple 1-4, 4-11
B9: I-814 (peptide)
peptide: Ac-[αAllylPro]D[tBuAla][B5]DDAAFN[PyrS2″][3Thi][Bta]T-NH2
modifications: staple 1-4, 4-11
B10: I-815 (peptide)
peptide: Ac-[αAllylPro]D[tBuAla][B5]DDAAFN[PyrS2″][3Thi][Bta]S-NH2
modifications: staple 1-4, 4-11
B11: I-1963 (peptide)
peptide: Ac-[αAllylPro][(EtSSEt)AspE][tBuAla][B5(4)]DDAAFL[PyrS2″][3Thi][Bta]Q-NH2
modifications: staple 1-4, 4-11
B12: I-1980 (peptide)
peptide: Ac-[αAllylPro]D[tBuAla][S3]DDAAFL[Aib][3Thi][Bta]Q-NH2
modifications: staple 1-4

Each binder was assayed against T1, full-length beta-Catenin (Uniprot ID …) (assay: fluorescence polarization competition; displacement of 5FAM-TCF4(10-53) from full-length beta-catenin).
Procedure, shortened: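 Readings followed a light-protected 60-minute incubation at 20° C. Each read was done in duplicate. Curves were fit with a 1:1 binding model including hill slope, and stated concentrations are final.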

| IC50 [nM] | Binder |
| --- | --- |
| 36 | B1 |
| 61 | B2 |
| 84 | B3 |

Each binder was assayed against T2, full-length beta-Catenin (Uniprot ID …) (assay: fluorescence polarization competition; 10 nM full-length beta-catenin + 10 nM 5FAM-TCF4 10-53 as competitor probe).
Experimental: The plate was incubated protected from light for 60 minutes at 20° C. prior to read. Reads were performed on a CLARIOstar plate reader (BMG Labtech) in duplicate, and data were fitted to a 1:1 binding model with hill slope using an in-house script. All provided concentrations are final concentrations.

| EC50 [nM] | Binder |
| --- | --- |
| 12 | B4 |
| 6 | B5 |

What follows are binders tested against T3, B-cat-Halo (beta-catenin HaloTag …) (assay: cell-based or functional assay).

| NanoBRET Abs IC50 [µM] | Binder |
| --- | --- |
| 5.8 | B6 |
| 9.6 | B7 |
| 6.1 | B8 |
| 18.9 | B9 |
| 15.4 | B10 |

The binders below were run against T4, B-cat-Halo (beta-catenin HaloTag …) (assay: cell-based or functional assay).

| NanoBRET Abs IC50 [µM] | Binder |
| --- | --- |
| 25.6 | B11 |
| > 20 | B12 |

These binders were tested against T5, beta-catenin in DLD1 TCF/LEF luciferase … (assay: cell-based or functional assay).

| DLD1 4% Abs IC50 [µM] | Binder |
| --- | --- |
| 4.3 | B6 |
| 9 | B7 |
| 11.3 | B8 |
| 16.5 | B9 |
| 10.3 | B10 |

What follows are binders tested against T6, B-cat-Halo (beta-catenin HaloTag …) (assay: cell-based or functional assay).

| NanoBRET Abs IC50 [µM] | Binder |
| --- | --- |
| 30.3 | B1 |
| 36.9 | B2 |
| > 20 | B3 |
